In PMC6547412:

B1: 20/10mer RNA (dsRNA)
RNA 1: ACUAGCACCGUAAAGCACGC
RNA 2: GCUUUACGGU
B2: 30/10mer RNA (dsRNA)
RNA 1: GGGGAGAAAAACUAGCACCGUAAAGCACGC
RNA 2: GCUUUACGGU

Legend:
eIF4G-MC (eIF4G) = molecular target: T1, eIF4G-MC (eIF4G) (yeast, UniProt P39935 572-952); test: EMSA
T1 sequence: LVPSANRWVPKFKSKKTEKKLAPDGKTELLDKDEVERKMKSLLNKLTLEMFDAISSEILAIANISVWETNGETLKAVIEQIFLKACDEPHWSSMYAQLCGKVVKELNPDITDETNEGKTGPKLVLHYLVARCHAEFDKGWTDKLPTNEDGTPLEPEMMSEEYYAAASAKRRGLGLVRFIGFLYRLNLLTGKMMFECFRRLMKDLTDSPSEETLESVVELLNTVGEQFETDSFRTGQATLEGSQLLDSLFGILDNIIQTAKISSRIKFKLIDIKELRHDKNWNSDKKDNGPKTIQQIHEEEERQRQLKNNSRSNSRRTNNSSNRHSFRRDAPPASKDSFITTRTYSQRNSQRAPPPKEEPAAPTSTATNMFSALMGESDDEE

eIF4A;eIF4G-MC (eIF4G) = molecular target: T2, eIF4A;eIF4G-MC (eIF4G) (yeast;yeast, UniProt P10081;P39935 1-395;572-952, |); test: EMSA
T2 sequence 1: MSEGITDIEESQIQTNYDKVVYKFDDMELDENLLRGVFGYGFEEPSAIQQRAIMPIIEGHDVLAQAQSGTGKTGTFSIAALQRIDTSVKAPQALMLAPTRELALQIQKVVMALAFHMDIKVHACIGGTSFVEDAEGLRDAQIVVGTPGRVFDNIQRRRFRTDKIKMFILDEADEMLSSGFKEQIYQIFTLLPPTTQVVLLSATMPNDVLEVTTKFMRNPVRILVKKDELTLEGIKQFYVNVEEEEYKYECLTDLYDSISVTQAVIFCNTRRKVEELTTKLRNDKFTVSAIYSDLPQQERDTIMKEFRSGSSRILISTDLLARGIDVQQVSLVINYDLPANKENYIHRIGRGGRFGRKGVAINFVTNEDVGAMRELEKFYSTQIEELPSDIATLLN
T2 sequence 2: T1 sequence

[1] = molecular target: T3, eIF4A;eIF4B;eIF4G-MC (eIF4G) (yeast;yeast;yeast, UniProt P10081;P34167;P39935 1-395;1-436;572-952, ||); test: fluorescence anisotropy
T3 sequence 1: T2 sequence 1
T3 sequence 2: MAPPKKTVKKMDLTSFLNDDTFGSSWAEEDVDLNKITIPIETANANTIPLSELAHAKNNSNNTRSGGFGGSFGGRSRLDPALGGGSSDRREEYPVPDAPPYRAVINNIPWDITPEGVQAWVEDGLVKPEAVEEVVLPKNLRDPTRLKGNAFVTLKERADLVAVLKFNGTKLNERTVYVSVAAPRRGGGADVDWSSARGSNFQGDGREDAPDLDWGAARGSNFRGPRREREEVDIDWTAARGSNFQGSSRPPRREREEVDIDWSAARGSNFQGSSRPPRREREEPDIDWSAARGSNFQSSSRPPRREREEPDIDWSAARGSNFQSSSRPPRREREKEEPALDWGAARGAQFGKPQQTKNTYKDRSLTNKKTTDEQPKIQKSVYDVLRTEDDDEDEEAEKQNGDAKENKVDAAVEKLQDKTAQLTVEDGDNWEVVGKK
T3 sequence 3: T1 sequence

eIF4B = molecular target: T4, eIF4B (yeast, UniProt P34167 1-436); test: EMSA
T4 sequence: T3 sequence 2

Binder | binding result (eIF4G-MC (eIF4G)) | binding result (eIF4A;eIF4G-MC (eIF4G)) | Kd [1] | binding result (eIF4B)
B1 | no binding | binds | 3500 ± 500 nM | –
B2 | – | – | 1200 ± 300 nM | binds
